From paper PMC3399781

Experiments:
[1] = biological target: HIV-1 glycoprotein gp120 (HIV-1) (UniProt P04578); experiment: ITC
[2] = biological target: 1GS mGRFT (GRFT with GS inserted between Ser16 and Gly17) (Griffithsia sp.) (UniProt P84801); experiment: AUC

| Substance | Kd [1] [µM] | dH [1] [kcal/mol] | Kd [2] [µM] |
| --- | --- | --- | --- |
| 1GS-S mGRFT (L2S variant of 1GS) (from UniProt P84801 1-121) (natural protein) | 0.112 | -35.5 | – |
| 1GS mGRFT (GRFT with GS inserted between Ser16 and Gly17) (from UniProt P84801 1-121) (natural protein) | – | – | 120 |
